{"source": "paper PMC5817196", "about": "“DprA from Neisseria meningitidis: properties and role in natural competence for transformation” (Microbiology, 2017)", "binders": {"B1": {"name": "C80 (ssDNA)", "DNA": "GCTGATCAACCCTACATGTGTAGGTAACCCTAACCCTAACCCTAAGGACAACCCTAGTGAAGCTTGTAACCCTAGGAGCT"}, "B2": {"name": "single-stranded binding protein of Neisseria meningitidis (SSBNm), recombinant (natural protein, UniProt P66848 1-174, looked up)", "chain": "MSLNKVILIGRLGRDPEVRYMPNGEAVCNFSVATSETWNDRNGQRVERTEWHNITMYRKLAEIAGQYLKKGGLVYLEGRIQSRKYQGKDGIERTAYDIVANEMKMLGGRNENSGGAPYEEGYGQSQEAYQRPAQQSRQPASDAPSHPQEAPAAPRRQPVPAAAPVEDIDDDIPF", "modifications": "RED-NHS dye (Monolith NT Protein Labeling kit RED-NHS), degree of labelling 0.3 to 0.6, in the MST experiment only", "notes": "Theoretical size of the tetramer is printed as 83.4 kDa"}, "B3": {"name": "GTB25 (ssDNA)", "DNA": "GCCGTCTGAAAGCTCTAGGCCGTCTGAAACGTCAGGCCGTCTGAAAGCTCTAGGCCGTCTGAAACGTCAGGCCGTCTGAA"}, "B4": {"name": "dT80 (ssDNA)", "DNA": "TTTTTTTTTTTTTTTTTTTTTTTTTTTTTTTTTTTTTTTTTTTTTTTTTTTTTTTTTTTTTTTTTTTTTTTTTTTTTTTT"}, "B5": {"name": "DNA processing chain A from Neisseria meningitidis MC58 (DprANm), recombinant, N-terminal 6xHis-tag (natural protein, UniProt Q9K1K1 1-397, looked up)", "chain": "MTEDERFAWLQLAFTPYIGAESFLLLMRRFGSAQNALSAPAEQVAALIRHKQALEAWRNAEKRALARQAAEAALEWEMRDGCRLMLLQDEDFPEMLTQGLTAPPVLFLRGNVQLLHKPSAAIVGSRHATPQAMRIAKDFGKSLGGKGIPVVSGMASGIDTAAHQGALQAEGGTIAVWGTGIDRIYPPVNKNLAYEIAEKGLIVSEFPIGTRPYAGNFPRRNRLIAALSQVTLVVEAALESGSLITARLAAEMGREVMAVPGSIDNPHSKGCHKLIKDGAKLVECLDDILNECPGLLQNTGASSYSINKGIPEKRITAVQTASDQLSLPEGKMPSEKTENRPVGGSILDRMGFDPVHPDVLAGQLAMPAADLYAALLELELDGSVAAMPGGRYQRIRT", "notes": "DprA (DNA processing chain A) of Neisseria meningitidis strain MC58, locus NMB0116; the dprA gene was amplified with primers EH041 and EH042 and inserted into pET28b(+); Theoretical size of the dimer is printed as 89.6 kDa; also called Nm DprA; source: E. coli ER2566 carrying pMGM1 (pET28b(+)), purified (Ni-NTA, dialysed)"}}, "key": {"DprA (DprANm) [1]": {"molecular_target": "T1, DprA (DprANm) (Neisseria meningitidis MC58, UniProt Q9K1K1 1-397)", "T1 sequence": "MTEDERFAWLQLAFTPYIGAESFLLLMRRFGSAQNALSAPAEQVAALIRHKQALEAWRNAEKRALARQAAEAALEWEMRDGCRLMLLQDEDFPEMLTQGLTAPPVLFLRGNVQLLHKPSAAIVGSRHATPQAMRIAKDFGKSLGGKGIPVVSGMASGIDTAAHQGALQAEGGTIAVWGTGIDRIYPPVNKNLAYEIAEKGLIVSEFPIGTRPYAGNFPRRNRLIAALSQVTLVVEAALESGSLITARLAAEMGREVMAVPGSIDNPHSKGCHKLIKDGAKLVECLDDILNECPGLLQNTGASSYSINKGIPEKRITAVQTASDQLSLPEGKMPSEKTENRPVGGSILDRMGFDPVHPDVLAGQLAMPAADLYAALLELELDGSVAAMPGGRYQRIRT", "experiment": "EMSA; 30 nM DprA; complex dissociates easily during electrophoresis; EMSA: 40 mM Tris-HCl pH 8, 2.5 mM EDTA, 2 mM MgCl2, 100 mg/ml BSA (so in the source), 6% glycerol, 1 mM DTT; 30 min on ice; 5% native PAGE at 4 °C", "settings": "protein: recombinant; tags: N-terminal 6xHis (pET28b, cleavable); chain copies: 2; label: 32P"}, "DprA (DprANm) [2]": {"molecular_target": "T1, DprA (DprANm)", "experiment": "EMSA; 0.5-80 nM DprA; stronger than dsDNA G80C80 (P=0.034); EMSA: 40 mM Tris-HCl pH 8, 2.5 mM EDTA, 2 mM MgCl2, 100 mg/ml BSA (so in the source), 6% glycerol, 1 mM DTT; 30 min on ice; 5% native PAGE at 4 °C", "settings": "protein: recombinant; tags: N-terminal 6xHis (pET28b, cleavable); chain copies: 2; label: 32P end label"}, "[3]": {"molecular_target": "the molecule itself", "experiment": "SEC-MALS; Superdex 200 10/300 GL with Malvern Viscotek UV, RI and static light-scattering detectors; calibrated with BSA; conditions similar to the co-size-exclusion assay; size from the main eluting peak"}, "[4]": {"molecular_target": "B5", "experiment": "MST; RED-NHS-labelled SSBNm (23.6 nM) or SSBNmΔ8C (25.6 nM), DprANm titrated; 20 mM HEPES pH 7.5, 300 mM NaCl, 0.05 % Tween 20, 0.1 % Pluronic F-127, 0.1 % PEG 8000, 2 mM DTT; 22 °C, 20 % MST power, Monolith NT.115", "settings": "both partners purified"}, "DprA (DprANm) [5]": {"molecular_target": "T1, DprA (DprANm)", "experiment": "EMSA; 20-40 nM DprA; affinity similar to C80; EMSA: 40 mM Tris-HCl pH 8, 2.5 mM EDTA, 2 mM MgCl2, 100 mg/ml BSA (so in the source), 6% glycerol, 1 mM DTT; 30 min on ice; 5% native PAGE at 4 °C", "settings": "protein: recombinant; tags: N-terminal 6xHis (pET28b, cleavable); chain copies: 2; label: 32P end label"}, "DprA (DprANm) [6]": {"molecular_target": "T1, DprA (DprANm)", "experiment": "EMSA; 30 nM DprA; very stable complex; EMSA: 40 mM Tris-HCl pH 8, 2.5 mM EDTA, 2 mM MgCl2, 100 mg/ml BSA (so in the source), 6% glycerol, 1 mM DTT; 30 min on ice; 5% native PAGE at 4 °C", "settings": "protein: recombinant; tags: N-terminal 6xHis (pET28b, cleavable); chain copies: 2; label: 32P"}}, "data": [{"binder": "TTTTTTTTTTTTTTTTTTTTTTTTTTTTTTTTTTTTTTTT (ssDNA)", "note": "[dT40]", "values": [{"measurement": "binding result", "setting": "DprA (DprANm) [1]", "result": "binds"}]}, {"binder": "B1", "values": [{"measurement": "binding result", "setting": "DprA (DprANm) [2]", "result": "binds"}]}, {"binder": "B2", "values": [{"measurement": "stoichiometry N", "setting": "[3]", "result": 4}, {"measurement": "Kd", "setting": "[4]", "result": "1.46 ± 0.544", "unit": "µM"}]}, {"binder": "B3", "values": [{"measurement": "binding result", "setting": "DprA (DprANm) [5]", "result": "binds"}]}, {"binder": "B4", "values": [{"measurement": "binding result", "setting": "DprA (DprANm) [6]", "result": "binds"}]}, {"binder": "B5", "values": [{"measurement": "stoichiometry N", "setting": "[3]", "result": 2}]}]}
